Measured values from patent US9051358B2, “Nonnatural collagen-like protein and use thereof” (ZHEJIANG UNIVERSITY, priority 2009, dated 2015).

B1: rGLK1164/G-CSF: fusion protein of GLK1164 and hG-CSF (SEQ ID NO: 6) (protein)
chain: GPPGEQGKPGNQGEPGNPGSPGQPGNPGQPGSPGNPGQPGNEGPQGSQGNPGQPGEPGSNGQPGQPGQNGKNGQPGSPGSQGSPGNQGSPGNQGQPGNKGEQGKPGNQGPAGEQGKPGNQGEPGNPGSPGQPGNPGQPGSPGNPGQPGNEGPQGSQGNPGQPGEPGSNGQPGQPGQNGKNGQPGSPGSQGSPGNQGSPGNQGQPGNKGEQGKPGNQGPAGEQGKPGNQGEPGNPGSPGQPGNPGQPGSPGNPGQPGNEGPQGSQGNPGQPGEPGSNGQPGQPGQNGKNGQPGSPGSQGSPGNQGSPGNQGQPGNKGEQGKPGNQGPAGEQGKPGNQGEPGNPGSPGQPGNPGQPGSPGNPGQPGNEGPQGSQGNPGQPGEPGSNGQPGQPGQNGKNGQPGSPGSQGSPGNQGSPGNQGQPGNKGEQGKPGNQGPAGGSGGTPLGPASSLPQSFLLKCLEQVRKIQGDGAALQEKLCATYKLCHPEELVLLGHSLGIPWAPLSSCPSQALQLAGCLSQLHSGLFLYQGLLQALEGISPELGPTLDTLQLDVADFATTIWQQMEELGMAPALQPTQGAMPAFASAFQRRAGGVLVASHLQSFLEVSYRVLRHLAQP
modifications: rGLK116 tetramer/G-CSF
B2: rhG-CSF: rhG-CSF (Filgrastim, Amgen, USA) (protein, UniProt P09919 31-207, looked up)
Granulocyte …: TPLGPASSLPQSFLLKCLEQVRKIQGDGAALQEKLVSECATYKLCHPEELVLLGHSLGIPWAPLSSCPSQALQLAGCLSQLHSGLFLYQGLLQALEGISPELGPTLDTLQLDVADFATTIWQQMEELGMAPALQPTQGAMPAFASAFQRRAGGVLVASHLQSFLEVSYRVLRHLAQP
modifications: filgrastim, N-terminal Met
B3: rGLK420/G-CSF: fusion protein of GLK420 and G-CSF (SEQ ID NO: 10) (protein)
chain: GPPGEDGDKGEIGEPGQKGSKGDKGEQGPPGPTGPQGPIGQPGPSGADGEPGPRGQQGLFGQKGDEGPRGFPGPPGPVGLQGLPGPPGEKGETGDVGQMGPPGPPGPRGPSGAPGADGPQGPPGGIGNPGAVGEKGEPGEAGEPGLPGEGGPPGPKGERGEKGESGPSGAAGPPGPKGPPGDDGPKGSPGPVGFPGDPGPPGEPGPAGQDGPPGDKGDDGEPGQTGSPGPTGEPGPSGPPGKRGPPGPAGPEGRQGEKGAKGEAGLEGPPGKTGPIGPQGAPGKPGPDGLRGIPGPVGEQGLPGSPGPDGPPGPMGPPGLPGLKGDSGPKGEKGHPGLIGLIGPPGEQGEKGDRGLPGPQGSSGPKGEQGITGPSGPIGPPGPPGLPGPPGPKGAKGSSGPTGPKGEAGHPGPPGPPGPPTPLGPASSLPQSFLLKCLEQVRKIQGDGAALQEKLCATYKLCHPEELVLLGHSLGIPWAPLSSCPSQALQLAGCLSQLHSGLFLYQGLLQALEGISPELGPTLDTLQLDVADFATTIWQQMEELGMAPALQPTQGAMPAFASAFQRRAGGVLVASHLQSFLEVSYRVLRHLAQP
modifications: GLK420/G-CSF, fusion protein

Key:
[1] = Pharmacokinetics of G-CSF proteins in SD rats (ELISA); type: in vivo; conditions: for Half-life: SD rats; for detectability in blood after subcutaneous injection: blood concentration-time curve
Description: (§1) The pharmacokinetic parameters and pharmacodynamic properties of rhG-CSF (Filgrastim, Amgen, USA), rHSA/G-CSF (prepared according to U.S. Pat. No. 5,876,969), rGLK1164/G-CSF and rGLK1164 in SD rats were compared.
(§2) Adult SPF SD rats (approximately 300-350 g) from the Center of Experimental Animals of Chinese Academy of Sciences in Shanghai were divided into 8 groups and administered according to Table 3. Blood samples were collected from the caudal veins of rats. The number of white blood cells were counted, and serum was saved at −20° C. after separated by centrifugation (3000rpm for 5 minutes).
The plasma concentration detection of rhG-CSF, rGLK1164/G-CSF and rHSA/G-CSF was carried out using ELISA (for the specific operations, refer to the operating manual of Human G-CSF DuoSet kit Human G-CSF ELISA Construction Kit (ANTIGENIX)). The MicroCal Origin software was used to draw standard curve according to four-parameter logistic fitting method, and calculate related statistical parameters by regression analysis. The 3P87 software was used to calculate the PK parameters.
GLK/G-CSFs with different structures were prepared in a similar way, and their activity, half-life in SD rats and other relevant parameters were compared.

[2] = tested on: G-CSF-dependent cell line NFS60; experiment: In vitro bioactivity in G-CSF-dependent cell line NFS60 by MTT assay; type: cell-based; conditions: for Bioactivity (IU/mg): Table 4; for Relative activity (in molar basis)(%): relative to G-CSF
Description: In vitro bioactivity of the rGLK1164/G-CSF fusion protein was measured in G-CSF-dependent cell line NFS60 by MTT assay (Chinese Pharmacopoeia, 2005 edition, three sections).

[3] = Immunogenicity study in mice, serum antibody detection by ELISA; type: in vivo, Balc/C mice; conditions: sc once a week, 2.5 nmol
Description: Balc/C mice (n=12) with a average weight of about 25 g were evenly divided into 4 groups. 2.5 nmol rGLK1164, 2.5 nmol rGLK1164/G-CSF, and the same volume of saline were administered to a corresponding group respectively by subcutaneous injection once a week. Serum samples were collected in week 4 and week 9(a week after the eighth immunization) and were saved separately at −70° C.
rGLK1164 or G-CSF was diluted with 0.2M carbonate buffer (pH9.6) to 1 μg/ml. Each well of the ELISA microplate was filled with 100 μl dilution and coated overnight at 4° C., and then the wells were washed with PBST for 3 times(5 minutes each time). The washed wells were sealed by 5% nonfat dry milk for 1 hour, and then washed three times with PBST (5 minutes each time). The preserved serum of each group was added to the well at a rate of 1:50,1:200,1:800, and then the microplate was incubated at 37° C. for 1 hour, and for one increased hour after the secondary antibody, HRP-conjugated goat anti-mouse antibody was added. After the microplate was shook to dry and washed by PBST, it was colored with TMB-HCL and detected under the illumination of 450 nm. Meanwhile, 200 ng/ml of rabbit anti-human G-CSF antibody was used as a positive control.

white blood cells = experiment: Pharmacodynamic study, number of white blood cells in SD rats; type: in vivo
Description: as §1, §2

[4] = In vitro stability, shock at 40° C., SEC-HPLC analysis; type: physicochemical; conditions: for Purity (%) (SEC-HPLC analysis): 1 mg/ml in 20 mM PB pH6.0, 40° C.; for protein content after incubation (%): 40° C.; for in vitro stability (aggregates, total protein content): shock 48 hours at 40° C.
Description: Reference rhG-CSF and rGLK1164/G-CSF were dissolved in 20 mM PB, pH6.0 to the protein concentration of 1 mg/ml. samples were sterile filtered and distributed to penicillin bottles. […]

| Molecule | Half-life [1] | terminal half-life ([1]; administered subcutaneously in rats) | detectability in blood after subcutaneous injection [1] | in vitro activity [2] | Bioactivity (IU/mg) [2] | Relative activity (in molar basis)(%) [2] | serum anti-G-CSF antibody ([3]; plate coated by G-CSF) | serum anti-rGLK1164 antibody ([3]; plate coated by rGLK1164) | number of white blood cells (white blood cells; 48 hours after an injection) | extent and duration of white blood cell increase versus rHSA/G-CSF (white blood cells; same dosage) | Purity (%) (SEC-HPLC analysis) ([4]; 0 h) | protein content after incubation (%) ([4]; 0 h) | Purity (%) (SEC-HPLC analysis) ([4]; 24 h) | protein content after incubation (%) ([4]; 24 h) | Purity (%) (SEC-HPLC analysis) ([4]; 48 h) | protein content after incubation (%) ([4]; 48 h) | in vitro stability (aggregates, total protein content) [4] |
| --- | --- | --- | --- | --- | --- | --- | --- | --- | --- | --- | --- | --- | --- | --- | --- | --- | --- |
| B1 | >7 h | 10 h | could still be detected at 72 hours | about 3.3×10^7 IU/mg | 0.33 × 10^8 IU/mg | 146% | anti-G-CSF antibody is produced | no anti-rGLK1164 antibody produced | increased significantly | no significant difference | 99.5% | 100% | 98.7% | 97.8% | 97.5% | 96.7% | changed little |
| B2 | 1.7 h |  | couldn't be detected 24 hours later |  | 0.7 × 10^8 IU/mg | 100% |  |  |  |  | 99.8% | 100% | 94.3% | 91.2% | 85.2% | 68.9% | a large number of polymeric aggregates were formed and the total protein content was also decreased significantly |
| B3 | >7 h |  |  |  | 0.28 × 10^8 IU/mg | 129% |  |  |  |  |  |  |  |  |  |  |  |
